Assay: label from the status in PepcDB records

MRCRVYYEDTDSEGVVYHANYLKYCERARSEFFFKQNVLPENEEGVFVIRSIKADFFTPASLGQVLEIRTQIKELRKVFVVLFQEIYCIQNASLEPMKPFKVFASEIKFGFVNRSTYSPIAIPKLFKELLNAI
protein production: failed

MNTSYSQSTLRHNQVLIWLCVLSFFSVLNEMVLNVSLPDIANEFNKLPASANWVNTAFMLTFSIGTALYGKLSDQLGIKNLLLFGIMVNGLGSIIGFVGHSFFPILILARFIQGIGAAAFPALVMVVVARYIPKENRGKAFGLIGSLVAMGEGVGPAIGGMVAHYIHWSYLLLIPTATIITVPFLIKLLKKEERIRGHIDMAGIILMSAGIVFFMLFTTSYRFSFLIISILAFFIFVQHIRKAQDPFVDPELGKNVFFVIGTLCGGLIFGTVAGFVSMVPYMMKDVHHLSTAAIGSGIIFPGTMSVIIFGYIGGLLVDRKGSLYVLTIGSALLSSGFLIAAFFIDAAPWIMTIIVIFVFGGLSFTKTVISTVVSSSLKEKEAGAGMSLLNFTSFLSEGTGIAIVGGLLSIGFLDHRLLPIDVDHSTYLYSNMLILFAGIIVICWLVILNVYKRSRRHG
protein production: not failed

DGQPVAMGDVGELVIGGVGLARYLDPVKDREKFSAELGWERAYRSGDHVRLCEDGLYFVGRIDDQVKIGGRRIELGEVEAHVAALPNVAQYAVVVRETAAGEKVLVAYVSPQVPDVDIDTSALDELPRAMVPRLVVLPEIPTTTSGKADKKALPWPLESAQVTGSDFTPTQQWLAQLWVDVLGVPVGDVD
protein production: failed

MKVIGINGSPRRAGNTSIMLKTIFEVLEDEGIETELIQVGGTNIKGCRACYACIKNKNSECSTKGDGFNEIFAKMVEADGMILGSPTYFADITPELKALIDRAGFVSRTNGQLFRHKVGASVVSLRRGGGIHAYDSINHLFQICQMFMVGSTYWNLGFGGRDGGEVVNDTEGMENMRDLGHSMAFLLKKLHNLEHHHHHH
protein production: not failed

MRELFKSVRGFFRLLRMIFPKRLKNAFLGLSELFYYASSLSFYTILSLSPILLFVFSLFVSHYLQAHSGEMEALIFPNAPKLIGAIKDFLENFKKTDMTLGTLEEVSIVVALVLFCENYRSIASKIFQAKPRDYAHFKGKEIFLFWGFGTTLVFLFALPLVVFFDIKIQVFFEDKNSNLLHVLRWIGTYAFFLILFTIPTNKVFKHYFWVFLWVFFTSVSWHVLKWAFTYYVLYNRTYHELYGSVSILWFLMSWVYVSWLVILIGMYGCKVCDAFDPKEVFKKFLGFFKKET
protein production: failed

MHPCHRPSFAFLRHPLSIVVCLALLAGCSTSPLQFPEPLLAKSEKAKATEGVALVSDDGKKAPASLAVPKTEFSGTPTSPRSIVGGVVDRMDKAILDDKKADISLNVEDVQLAAFINEVFGNILGLPFEIESALKEKTDRVTVRLEQPQTAQMVYEVARQVLVNYGVEILHQGDIYRFQIKQVGLSPDEPPILISGEARPSVPIAYRPVFQFVALHSVDPKDVIPWLNSAYEKSGLSVMADGARSGLMLKGMSSIVNQATEAVRLLDQPFMRGRHSLRIDPAFVSAADMASQLKTVIAAQGYSVGIGEAVGSIMLVPLESSNGLIVFANDGQLLDLVREWAQQVDRAPMAVAAGIGEEKEGLFFYEARNTRVTELAKSLRALVSGFAGEGAYGITSGLQSSASKRSGGGRRAGDDGAAPAVAPLLQAAGAAALVGGDGANGLLGGLAAGISGSGTIVEDENRNAILFRGAARTWQQMQGLLREMDKPARQVLIEVTVASVSLSDTQELGVEWEMLNGSFNSATSTGSKGSAGKGGFNYVINTAGGNTAAIQAMADNQRVRVLATPRILVKSGEQANINVGRDIPIPTAQVNDDSTTAGSTNLRNEIAYRSTGTILNVAPVVYSDSRVDLTVSQELSDSGGSSGGGGKASGGGISAPEISRTSLETSLTLKSGGSVLMGGLIRDNITDSNAGVPLLKDIPGIGFLFGRQKAVKTREEVIMLIQPYVLESDADAREVTEKLHAMLSKTLACSDRPGACRME
protein production: failed

MCIAIPGKMTAIVDENTATIDMGGICRDVNMALMGGAEESMIGKHFLVHVGYAISEISEEESEETMRLLKIMAGLEEIDSFENESQ
protein production: failed

MATVAFHTLGCKVNHYETEAIWQLFKEAGYERKEFESSADVYVINTCTVTNTGDKKSRQVIRRAIRQNPDAVICVTGCYAQTSPAEIMAIPGVDIVVGTQDREKMLGYIKQYQEERQPINGVSNIMKARVFEELDVPAFTDRTRASLKIQEGCNNFCTFCIIPWARGLLRSRDPEEVIRQAQQLVDAGYKEIVLTGIHTGGYGEDMKDYNFAQLLKELDSRVKGLKRIRISSIEASQITDEVIEVLDRSDKIVRHLHIPLQSGSNSVLKRMRRKYTMEFFADRLTKLKKALPGLAVTSDVIVGFPGETEEEFMETYNFIKEHKFSELHVFPYSKRTGTPAARMDGQVDENVKNERVHKLIALSDQLAKEYASDYEGDVLEIIPEEPFTETGEGNLLVGYTDNYIKVVFEGSEDLIGQLVKVKILKAGYPYNKGQFVRVAEDDVRENIRLSS
protein production: failed

MGNFHATTIFAVHHNGECAMAGDGQVTMGNAVVMKHTARKVRKLFQGKVLAGFAGSVADAFTLFEMFEGKLEEYNGNLQRAAVEMAKQWRGDKMLRQLEAMLIVMDKTTMLLVSGTGEVIEPDDGILAIGSGGNYALSAGRALKQYASEHLTAKQIAKASLEIAGDICVYTNHNIIVEEL
protein production: not failed

MSNNNKYFTITKKQYKKMRRNKIELLFNVKVLKKKNGRQKFKILHEVENKPKIPIKIIEDQPESPKPLKPPKPPKPPKGPDNPEEPDSPEEPKETDQPGGPDNPNAGNKKMPTPEEYVTRKEFNEFKDSNNQRLTKIENKVDKLEVKVDKLAEIVQTQGEEIKELKVEQKAQSETLQLILKTLQKMNDRLDRMETRLDKIDSPKLEHHHHHH
protein production: not failed

ERREKKNKIMQAKEDFKKMMEEAKFNPRATFSEFAAKHAKDSRFKAIEKMKDREALFNEFVAAARKKEKE
protein production: not failed

MEFVLASASPARRRLLQGIGINPIVHVSHFDESQIHHDDPAQLVEALAAAKAKTVAQHRQDALILGCDSVLHVRGEILGKPASPTEAIARWQTMRGHYGLLYTGHALVDQTQNQLLVRHGVTKVYFAAIDDDTIAAYVRSGEPLQCAGCFALEGKGGLFIEKIEGCHSNVIGLSLPLLREMLAHLGYTVQTLWP
protein production: failed

MVGFKPTDVPPTAAVKFIGAGTAACIADLFTFPLDTAKVRLQIQGESKAVHMKTASYKGVFGTISTMVKMEGPKSLYNGLAAGLQRQMSFASVRIGLYDSVKQFYTKGSEHAGIGSRLAAGCTTGAMAVAVAQPTDVVKVRFQAQANSSANRRYKGTMDAYRTIAREEGMRGLWKGTVPNITRNAIVNCTELVTYDLIKDSILKANIMTDNLPCHFTSAFGAGFCTTVIASPVDVVKTRYMNSAKGQYTSALNCALTMFRKEGPRAFYKGFMPSFLRLGSWNVVMFVTYEQLKRAMMSAQRSREAPF
protein production: failed

SVQEAPAALPTEPGPSPVPAFLGKLWALVGDPGTDHLIRWSPSGTSFLVSDQSRFAKEVLPQYFKHSNMASFVRQLNMYGFRKVVSIEQGGLLRPERDHVEFQHPSFVRGREQLLERVRRKVPALRGDDGRWRPEDLGRLLGEVQALRGVQESTEARLRELRQQNEILWREVVTLRQSHGQQHRVIGKLIQCLFGPLQAGPSNAGGKRKLSLMLDEGSSCPTPAKFNTCPLPGALLQDPYFIQSPLPETNLGLSPHRARGPIISDIPEDSPSPEGTRLSPSSDGRREKGLALLKEEPASPGGDGEAGLALAPNECDFCVTAPPPLPVAVVQAILEGKGSFSPEGPRNAQQPEPGDPREIPDRGPLGLESGDRSPESLLPPMLLQPPQESVEPAGPLDVLGPSLQGREWTLMDLDMELSLMQPLVPERGEPELAVKGLNSPSPGKDPTLGAPLLLDVQAALGGPALGLPGALTIYSTPESRTASYLGPEASPSP
protein production: not failed

MNKTLIINAHPKVDDTSSVSIKVFKHFLESYKELISNNETIEQINLYDDVVPMIDKTVLSAWEKQGNGQELTREEQKVTERMSEILQQFKSANTYVIVLPLHNFNIPSKLKDYMDNIMIARETFKYTETGSVGLLKDGRRMLVIQASGGIYTNDDWYTDVEYSHKYLKAMFNFLGIEDYQIVRAQGTAVLDPTEVLQNAYKEVEEAASRLANKYIFSLEE
protein production: not failed

Source: a protein production outcome set (Wang et al. 2014)
